# Laboratory results published in ChEMBL document CHEMBL5257037, “Side Chain Cyclized Aromatic Amino Acids: Great Tools as Local Constraints in Peptide and Peptidomimetic Design” (J Med Chem, 2016).
# B1: Angiotensin-converting enzyme (Homo sapiens), P12821 (protein)
# chain: MGAASGRRGPGLLLPLPLLLLLPPQPALALDPGLQPGNFSADEAGAQLFAQSYNSSAEQVLFQSVAASWAHDTNITAENARRQEEAALLSQEFAEAWGQKAKELYEPIWQNFTDPQLRRIIGAVRTLGSANLPLAKRQQYNALLSNMSRIYSTAKVCLPNKTATCWSLDPDLTNILASSRSYAMLLFAWEGWHNAAGIPLKPLYEDFTALSNEAYKQDGFTDTGAYWRSWYNSPTFEDDLEHLYQQLEPLYLNLHAFVRRALHRRYGDRYINLRGPIPAHLLGDMWAQSWENIYDMVVPFPDKPNLDVTSTMLQQGWNATHMFRVAEEFFTSLELSPMPPEFWEGSMLEKPADGREVVCHASAWDFYNRKDFRIKQCTRVTMDQLSTVHHEMGHIQYYLQYKDLPVSLRRGANPGFHEAIGDVLALSVSTPEHLHKIGLLDRVTNDTESDINYLLKMALEKIAFLPFGYLVDQWRWGVFSGRTPPSRYNFDWWYLRTKYQGICPPVTRNETHFDAGAKFHVPNVTPYIRYFVSFVLQFQFHEALCKEAGYEGPLHQCDIYRSTKAGAKLRKVLQAGSSRPWQEVLKDMVGLDALDAQPLLKYFQPVTQWLQEQNQQNGEVLGWPEYQWHPPLPDNYPEGIDLVTDEAEASKFVEEYDRTSQVVWNEYAEANWNYNTNITTETSKILLQKNMQIANHTLKYGTQARKFDVNQLQNTTIKRIIKKVQDLERAALPAQELEEYNKILLDMETTYSVATVCHPNGSCLQLEPDLTNVMATSRKYEDLLWAWEGWRDKAGRAILQFYPKYVELINQAARLNGYVDAGDSWRSMYETPSLEQDLERLFQELQPLYLNLHAYVRRALHRHYGAQHINLEGPIPAHLLGNMWAQTWSNIYDLVVPFPSAPSMDTTEAMLKQGWTPRRMFKEADDFFTSLGLLPVPPEFWNKSMLEKPTDGREVVCHASAWDFYNGKDFRIKQCTTVNLEDLVVAHHEMGHIQYFMQYKDLPVALREGANPGFHEAIGDVLALSVSTPKHLHSLNLLSSEGGSDEHDINFLMKMALDKIAFIPFSYLVDQWRWRVFDGSITKENYNQEWWSLRLKYQGLCPPVPRTQGDFDPGAKFHIPSSVPYIRYFVSFIIQFQFHEALCQAAGHTGPLHKCDIYQSKEAGQRLATAMKLGFSRPWPEAMQLITGQPNMSASAMLSYFKPLLDWLRTENELHGEKLGWPQYNWTPNSARSEGPLPDSGRVSFLGLDLDAQQARVGQWLLLFLGIALLVATLGLSQRLFSIRHRSLHRHSHGPQFGSEVELRHS
# Substrate: CC[C@H](C)[C@H](NC(=O)[C@H](Cc1cnc[nH]1)NC(=O)[C@H](Cc1ccccc1)NC(=O)OCc1ccccc1)C(=O)O
# Assay: Binding affinity to angiotensin-converting enzyme (unknown origin) assessed as Km
# Details: Homo sapiens
protein,measurement,value
B1,Km,0.01 µM
